Measurements published in US20210371508A1.

Legend:
V5-hNMES1 (human) [1] = target: V5-hNMES1 (human) (UniProt Q9C002); test: IP with IgG control, lysate of 231 cells with V5-NMES1 OE pre-incubated with isotype ctrl; western blot for NMES1; a band is visible in this control lane
V5-hNMES1 (human) [2] = target: V5-hNMES1 (human) (UniProt Q9C002); test: IP with IgG control, lysate of 231 cells with V5-NMES1 OE pre-incubated with NM-1; western blot for NMES1; hardly any band
[3] = target: transferrin receptor 1 (TFRC) (human) (UniProt P02786); test: IP with IgG control, lysate of 231 cells with V5-NMES1 OE pre-incubated with isotype ctrl; western blot for TFRC
Sequence of transferrin receptor 1 (TFRC) (human) (P02786 whole entry): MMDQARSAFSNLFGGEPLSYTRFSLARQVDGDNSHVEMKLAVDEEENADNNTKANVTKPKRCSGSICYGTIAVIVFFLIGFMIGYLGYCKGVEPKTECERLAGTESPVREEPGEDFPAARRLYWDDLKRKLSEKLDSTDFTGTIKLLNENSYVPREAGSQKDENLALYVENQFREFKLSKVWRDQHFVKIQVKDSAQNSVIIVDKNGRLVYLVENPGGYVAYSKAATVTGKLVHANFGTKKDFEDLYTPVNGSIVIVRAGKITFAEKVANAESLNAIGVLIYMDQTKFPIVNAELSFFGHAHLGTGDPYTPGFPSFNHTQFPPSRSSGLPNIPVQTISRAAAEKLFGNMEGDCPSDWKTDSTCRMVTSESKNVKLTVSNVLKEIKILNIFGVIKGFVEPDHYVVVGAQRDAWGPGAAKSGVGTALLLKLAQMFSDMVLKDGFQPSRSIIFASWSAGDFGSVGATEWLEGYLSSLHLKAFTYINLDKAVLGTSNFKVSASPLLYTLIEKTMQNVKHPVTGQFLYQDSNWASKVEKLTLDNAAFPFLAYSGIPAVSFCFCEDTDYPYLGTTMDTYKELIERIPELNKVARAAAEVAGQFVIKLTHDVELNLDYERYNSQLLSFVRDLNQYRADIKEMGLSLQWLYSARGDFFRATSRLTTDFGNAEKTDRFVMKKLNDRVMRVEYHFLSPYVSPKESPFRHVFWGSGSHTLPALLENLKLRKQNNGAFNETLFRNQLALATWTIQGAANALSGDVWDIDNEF

[4] = target: transferrin receptor 1 (TFRC) (human) (UniProt P02786); test: IP with IgG control, lysate of 231 cells with V5-NMES1 OE pre-incubated with NM-1; western blot for TFRC

Sequence of V5-hNMES1 (human) (Q9C002 whole entry): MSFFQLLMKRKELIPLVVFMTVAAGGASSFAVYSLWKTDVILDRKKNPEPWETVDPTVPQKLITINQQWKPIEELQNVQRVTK

isotype IgG control (antibody)
number under the NMES1 band (band intensity, not named on the sheet) (V5-hNMES1 (human) [1]): 38.5 | number under the NMES1 band (band intensity, not named on the sheet) (V5-hNMES1 (human) [2]): 15.8 | number under the TFRC band (band intensity, not named on the sheet) [3]: 24 | number under the TFRC band (band intensity, not named on the sheet) [4]: 27.4
